Laboratory results as given in paper PMC5382158 (Frontiers in Cellular and Infection Microbiology, 2017).

T1: Rv2617c-T25 (M. tuberculosis, UniProt I6XER9 1-146)
T1 sequence: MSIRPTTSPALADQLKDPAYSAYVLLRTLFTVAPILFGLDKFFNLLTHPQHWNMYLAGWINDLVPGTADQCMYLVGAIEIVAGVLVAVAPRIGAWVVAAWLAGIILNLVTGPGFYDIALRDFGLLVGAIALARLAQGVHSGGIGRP


Assays:
[1] = biological target: NarI-T25 (M. tuberculosis); assay: two-hybrid
[2] = biological target: T1, Rv2617c-T25; assay: two-hybrid; conditions: partners not purified

Molecule | β-galactosidase activity [1] | β-galactosidase activity [2]
KdpF-T18 (peptide) | 1200 Miller units | 
MTTVDNIVGLVIAVALMAFLFAALLFPEKF [KdpF-T18] |  | 2030 Miller units
